Two substances from US20220112291A1 can be followed below.

In this assay the target is human CD1a expressed on cells (human) (UniProt P06126). Put plainly: cell-based or functional assay.

Some results are limits rather than exact numbers.

Sequence of human CD1a expressed on cells (human) (P06126 17-327): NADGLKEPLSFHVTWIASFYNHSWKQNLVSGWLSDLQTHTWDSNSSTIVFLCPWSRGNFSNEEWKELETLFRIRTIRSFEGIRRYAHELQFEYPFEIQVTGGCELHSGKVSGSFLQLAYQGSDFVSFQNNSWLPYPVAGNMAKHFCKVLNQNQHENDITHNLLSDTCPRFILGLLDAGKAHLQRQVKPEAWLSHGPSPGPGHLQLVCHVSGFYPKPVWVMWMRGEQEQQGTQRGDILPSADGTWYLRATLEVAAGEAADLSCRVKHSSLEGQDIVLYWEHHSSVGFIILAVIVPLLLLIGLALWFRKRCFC

With “Human IgG1 (EFN) isotype control (antibody)”, the CD69 expression, IC50 was > 100 nM and the IL-2 secretion, IC50 is > 100 nM.

Turning to OKT6-human IgG1 (EFN) (antibody), the CD69 expression, IC50 came to 0.042 nM and the IL-2 secretion, IC50 worked out at 0.028 nM.
